Experimental data: patent US20170183407A1

Target: CD19 on tumor target cells (UniProt P15391)
Assay: cell-based or functional assay

UniProt P15391, sequence (P15391 20-556 limits assumed): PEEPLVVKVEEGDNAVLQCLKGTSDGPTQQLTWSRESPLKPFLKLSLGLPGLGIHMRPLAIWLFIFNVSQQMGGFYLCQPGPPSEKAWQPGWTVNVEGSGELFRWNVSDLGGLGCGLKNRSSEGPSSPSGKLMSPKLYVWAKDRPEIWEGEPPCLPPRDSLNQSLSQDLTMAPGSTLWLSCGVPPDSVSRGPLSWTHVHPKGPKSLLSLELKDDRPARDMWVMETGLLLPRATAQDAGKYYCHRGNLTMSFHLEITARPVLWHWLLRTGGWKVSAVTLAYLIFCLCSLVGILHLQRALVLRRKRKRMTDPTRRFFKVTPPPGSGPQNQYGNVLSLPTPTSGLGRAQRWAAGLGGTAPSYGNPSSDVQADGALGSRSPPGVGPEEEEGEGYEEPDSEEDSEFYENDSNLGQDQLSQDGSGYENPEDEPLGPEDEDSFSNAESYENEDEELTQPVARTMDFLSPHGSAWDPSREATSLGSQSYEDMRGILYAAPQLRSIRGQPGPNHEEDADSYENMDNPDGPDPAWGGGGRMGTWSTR

percentage of specific cell lysis (4-hour Chromium Release Assay) | Substance
49% | Clinical-grade CD19RCD28mζ CAR (CoOpCD19RCD28ζ), on T cells
52% | EZ CAR CD19RCD28mζ CAR (CD19-specific CAR activated through chimeric CD28/CD3-zeta, made with the EZ CAR platform), on T cells
